Measurements: PMC8196004

T1: PP2A-B55, Q7ZX64
T1 chain: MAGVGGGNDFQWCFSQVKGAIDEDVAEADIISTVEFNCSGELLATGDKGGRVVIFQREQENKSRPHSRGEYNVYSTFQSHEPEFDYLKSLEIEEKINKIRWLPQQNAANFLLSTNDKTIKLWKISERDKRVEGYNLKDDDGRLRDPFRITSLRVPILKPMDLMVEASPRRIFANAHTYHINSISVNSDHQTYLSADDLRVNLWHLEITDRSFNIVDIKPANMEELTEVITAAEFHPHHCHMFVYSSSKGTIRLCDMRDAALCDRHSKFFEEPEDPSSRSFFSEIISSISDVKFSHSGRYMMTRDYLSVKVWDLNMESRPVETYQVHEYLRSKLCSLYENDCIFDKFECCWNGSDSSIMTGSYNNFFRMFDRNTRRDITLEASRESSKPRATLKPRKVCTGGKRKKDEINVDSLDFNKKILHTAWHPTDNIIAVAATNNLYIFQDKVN


Target: T1, PP2A-B55, Q7ZX64
Assay: His pull-down, western blot quantification
Settings: read off a plot
[1] = chain shown with the change, 20 ng His-Arpp19, panel titled Phospho-Arpp19, parent: est. 0.98
[2] = chain shown with the change, Arpp19 thio-phosphorylated at S67/S71 (ATPγS and recombinant Gwl kinase), parent: est. 1.0
[3] = chain shown with the change;, parent: est. 0.83
[4] = chain shown with the change;, parent: est. 0.90

Binder	response [1] [AU]	response [2] [AU]	response [3] [AU]	response [4] [AU]
6His-Xenopus Arpp19 (isoform 1), wild type F69A (protein) MSGENQETKAQEESSALEQKEIDDKVVSPEKSEEIKLKARYPNLGPKPGGSDFLRKRLQKGVSKKQKYADSGDYNMAKAKMKNKQLPTAASDKTEVTGDHIPTPQDLPQRKPSLVASKLAG	0.04	0.08	–	–
6His-Xenopus Arpp19 (isoform 1), wild type G72A; S71A (protein) MSGENQETKAQEESSALEQKEIDDKVVSPEKSEEIKLKARYPNLGPKPGGSDFLRKRLQKGVSKKQKYFDAADYNMAKAKMKNKQLPTAASDKTEVTGDHIPTPQDLPQRKPSLVASKLAG	–	–	0.16	–
6His-Xenopus Arpp19 (isoform 1), wild type G72A; S71T (protein) MSGENQETKAQEESSALEQKEIDDKVVSPEKSEEIKLKARYPNLGPKPGGSDFLRKRLQKGVSKKQKYFDTADYNMAKAKMKNKQLPTAASDKTEVTGDHIPTPQDLPQRKPSLVASKLAG	–	–	0.08	–
6His-Xenopus Arpp19 (isoform 1), wild type T103A; P104A; D106A; L107A; P108A; Q109A (protein) MSGENQETKAQEESSALEQKEIDDKVVSPEKSEEIKLKARYPNLGPKPGGSDFLRKRLQKGVSKKQKYFDSGDYNMAKAKMKNKQLPTAASDKTEVTGDHIPAAQAAAARKPSLVASKLAG	–	–	–	0.36
6His-Xenopus Arpp19 (isoform 1), wild type Q66A (protein) MSGENQETKAQEESSALEQKEIDDKVVSPEKSEEIKLKARYPNLGPKPGGSDFLRKRLQKGVSKKAKYFDSGDYNMAKAKMKNKQLPTAASDKTEVTGDHIPTPQDLPQRKPSLVASKLAG	0.86	–	–	–
6His-Xenopus Arpp19 (isoform 1), wild type K67A (protein) MSGENQETKAQEESSALEQKEIDDKVVSPEKSEEIKLKARYPNLGPKPGGSDFLRKRLQKGVSKKQAYFDSGDYNMAKAKMKNKQLPTAASDKTEVTGDHIPTPQDLPQRKPSLVASKLAG	0.52	–	–	–
6His-Xenopus Arpp19 (isoform 1), wild type G72A (protein) MSGENQETKAQEESSALEQKEIDDKVVSPEKSEEIKLKARYPNLGPKPGGSDFLRKRLQKGVSKKQKYFDSADYNMAKAKMKNKQLPTAASDKTEVTGDHIPTPQDLPQRKPSLVASKLAG	1.4	–	1.2	–
6His-Xenopus Arpp19 (isoform 1), wild type T103A; P104A (protein) MSGENQETKAQEESSALEQKEIDDKVVSPEKSEEIKLKARYPNLGPKPGGSDFLRKRLQKGVSKKQKYFDSGDYNMAKAKMKNKQLPTAASDKTEVTGDHIPAAQDLPQRKPSLVASKLAG	–	–	–	0.57

Continued, values first:

response [1] [AU]	response [2] [AU]	response [3] [AU]	response [4] [AU]	Binder
0.16	0.18	–	–	6His-Xenopus Arpp19 (isoform 1), wild type Y68A (protein) MSGENQETKAQEESSALEQKEIDDKVVSPEKSEEIKLKARYPNLGPKPGGSDFLRKRLQKGVSKKQKAFDSGDYNMAKAKMKNKQLPTAASDKTEVTGDHIPTPQDLPQRKPSLVASKLAG
0.14	0.04	–	–	6His-Xenopus Arpp19 (isoform 1), wild type D70A (protein) MSGENQETKAQEESSALEQKEIDDKVVSPEKSEEIKLKARYPNLGPKPGGSDFLRKRLQKGVSKKQKYFASGDYNMAKAKMKNKQLPTAASDKTEVTGDHIPTPQDLPQRKPSLVASKLAG
0.16	0.15	–	–	6His-Xenopus Arpp19 (isoform 1), wild type D73A (protein) MSGENQETKAQEESSALEQKEIDDKVVSPEKSEEIKLKARYPNLGPKPGGSDFLRKRLQKGVSKKQKYFDSGAYNMAKAKMKNKQLPTAASDKTEVTGDHIPTPQDLPQRKPSLVASKLAG
0.09	0.11	–	–	6His-Xenopus Arpp19 (isoform 1), wild type Y74A (protein) MSGENQETKAQEESSALEQKEIDDKVVSPEKSEEIKLKARYPNLGPKPGGSDFLRKRLQKGVSKKQKYFDSGDANMAKAKMKNKQLPTAASDKTEVTGDHIPTPQDLPQRKPSLVASKLAG
0.21	0.13	–	–	6His-Xenopus Arpp19 (isoform 1), wild type S71T (protein) MSGENQETKAQEESSALEQKEIDDKVVSPEKSEEIKLKARYPNLGPKPGGSDFLRKRLQKGVSKKQKYFDTGDYNMAKAKMKNKQLPTAASDKTEVTGDHIPTPQDLPQRKPSLVASKLAG
